Data from patent US20260209293A1 (Novo Nordisk, published 2026).
*1 amine or outer side, *2 acyl side, *3 side chain or, on linkers, in order; H or OH if unused. The star is where a group is joined. C20 diacid = O=C(O)CCCCCCCCCCCCCCCCCCC(=O)*; C18 diacid = O=C(O)CCCCCCCCCCCCCCCCC(=O)*; γGlu = O=C(O)[C@H](CCC(=O)[*:2])N[*:1]

T1: human calcitonin receptor (a) (human, UniProt P30988 25-474)
T1 sequence (looked up): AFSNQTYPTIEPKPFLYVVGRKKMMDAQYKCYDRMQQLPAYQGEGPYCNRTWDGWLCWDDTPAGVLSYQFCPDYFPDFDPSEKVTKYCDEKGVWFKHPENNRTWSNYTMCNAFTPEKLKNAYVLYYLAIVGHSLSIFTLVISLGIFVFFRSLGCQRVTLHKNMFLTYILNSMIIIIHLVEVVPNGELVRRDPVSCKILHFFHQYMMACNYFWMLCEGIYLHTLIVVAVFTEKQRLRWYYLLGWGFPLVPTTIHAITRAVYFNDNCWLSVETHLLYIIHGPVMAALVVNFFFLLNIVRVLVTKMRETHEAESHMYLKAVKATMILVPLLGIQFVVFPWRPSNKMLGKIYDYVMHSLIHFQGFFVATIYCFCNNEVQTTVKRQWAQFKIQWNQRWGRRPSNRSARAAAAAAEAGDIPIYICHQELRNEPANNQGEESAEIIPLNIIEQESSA

T2: human amylin-3(a) receptor (human, UniProt P30988 25-474; O60896 24-148)
T2 sequence (looked up) 1: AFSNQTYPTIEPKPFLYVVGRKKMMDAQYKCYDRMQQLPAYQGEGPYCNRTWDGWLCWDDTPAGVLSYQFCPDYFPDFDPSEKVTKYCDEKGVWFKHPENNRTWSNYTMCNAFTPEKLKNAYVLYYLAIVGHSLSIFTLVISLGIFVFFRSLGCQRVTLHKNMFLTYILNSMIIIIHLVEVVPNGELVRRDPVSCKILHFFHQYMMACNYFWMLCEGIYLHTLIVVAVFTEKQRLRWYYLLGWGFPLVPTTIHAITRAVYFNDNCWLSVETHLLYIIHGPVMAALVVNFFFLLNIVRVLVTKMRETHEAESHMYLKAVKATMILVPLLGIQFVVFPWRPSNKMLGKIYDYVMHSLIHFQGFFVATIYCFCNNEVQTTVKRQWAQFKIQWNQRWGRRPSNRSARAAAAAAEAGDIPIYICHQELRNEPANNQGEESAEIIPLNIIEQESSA
T2 sequence (looked up) 2: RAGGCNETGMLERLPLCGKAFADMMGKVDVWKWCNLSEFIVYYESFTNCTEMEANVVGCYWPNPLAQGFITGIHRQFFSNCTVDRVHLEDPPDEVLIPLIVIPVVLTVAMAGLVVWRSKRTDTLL


Key:
[1] = target: T1, human calcitonin receptor (a); test: cell-based or functional assay
[2] = target: T2, human amylin-3(a) receptor; test: cell-based or functional assay

Row | Binder | hCalcR potency, EC50 (pM); CRE-luciferase reporter in BHK cells [1] [pM] | hAmyR3 potency, EC50 (pM); CRE-luciferase reporter in BHK cells [2] [pM]
1 | {C18 diacid-γGlu-γGlu}-ASHLSTAQTQRLAEFLHHFGPILPPTDVGSETY-NH2 (SMILES CC[C@H](C)[C@H](NC(=O)[C@@H]1CCCN1C(=O)CNC(=O)[C@H](Cc1ccccc1)NC(=O)[C@H](Cc1c[nH]cn1)NC(=O)[C@H](Cc1c[nH]cn1)NC(=O)[C@H](CC(C)C)NC(=O)[C@H](Cc1ccccc1)NC(=O)[C@H](CCC(=O)O)NC(=O)[C@H](C)NC(=O)[C@H](CC(C)C)NC(=O)[C@H](CCCNC(=N)N)NC(=O)[C@H](CCC(N)=O)NC(=O)[C@@H](NC(=O)[C@H](CCC(N)=O)NC(=O)[C@H](C)NC(=O)[C@@H](NC(=O)[C@H](CO)NC(=O)[C@H](CC(C)C)NC(=O)[C@H](Cc1c[nH]cn1)NC(=O)[C@H](CO)NC(=O)[C@H](C)NC(=O)CC[C@H](NC(=O)CC[C@H](NC(=O)CCCCCCCCCCCCCCCCC(=O)O)C(=O)O)C(=O)O)[C@@H](C)O)[C@@H](C)O)C(=O)N[C@@H](CC(C)C)C(=O)N1CCC[C@H]1C(=O)N1CCC[C@H]1C(=O)N[C@H](C(=O)N[C@@H](CC(=O)O)C(=O)N[C@H](C(=O)NCC(=O)N[C@@H](CO)C(=O)N[C@@H](CCC(=O)O)C(=O)N[C@H](C(=O)N[C@@H](Cc1ccc(O)cc1)C(N)=O)[C@@H](C)O)C(C)C)[C@@H](C)O) | 15.7 | 5.71
2 | {C18 diacid-γGlu}-ASHLSTLQTQRLAEFLHHFGPILPPTDVGSETP-NH2 (SMILES CC[C@H](C)[C@H](NC(=O)[C@@H]1CCCN1C(=O)CNC(=O)[C@H](Cc1ccccc1)NC(=O)[C@H](Cc1c[nH]cn1)NC(=O)[C@H](Cc1c[nH]cn1)NC(=O)[C@H](CC(C)C)NC(=O)[C@H](Cc1ccccc1)NC(=O)[C@H](CCC(=O)O)NC(=O)[C@H](C)NC(=O)[C@H](CC(C)C)NC(=O)[C@H](CCCNC(=N)N)NC(=O)[C@H](CCC(N)=O)NC(=O)[C@@H](NC(=O)[C@H](CCC(N)=O)NC(=O)[C@H](CC(C)C)NC(=O)[C@@H](NC(=O)[C@H](CO)NC(=O)[C@H](CC(C)C)NC(=O)[C@H](Cc1c[nH]cn1)NC(=O)[C@H](CO)NC(=O)[C@H](C)NC(=O)CC[C@H](NC(=O)CCCCCCCCCCCCCCCCC(=O)O)C(=O)O)[C@@H](C)O)[C@@H](C)O)C(=O)N[C@@H](CC(C)C)C(=O)N1CCC[C@H]1C(=O)N1CCC[C@H]1C(=O)N[C@H](C(=O)N[C@@H](CC(=O)O)C(=O)N[C@H](C(=O)NCC(=O)N[C@@H](CO)C(=O)N[C@@H](CCC(=O)O)C(=O)N[C@H](C(=O)N1CCC[C@H]1C(N)=O)[C@@H](C)O)C(C)C)[C@@H](C)O) | 2.26 | 1.6
3 | {C18 diacid-γGlu}-ASHLSTAQTQRLAEFLHHSSDPFGAIPSSTDVGPDTY-NH2 (SMILES CC[C@H](C)[C@H](NC(=O)[C@H](C)NC(=O)CNC(=O)[C@H](Cc1ccccc1)NC(=O)[C@@H]1CCCN1C(=O)[C@H](CC(=O)O)NC(=O)[C@H](CO)NC(=O)[C@H](CO)NC(=O)[C@H](Cc1c[nH]cn1)NC(=O)[C@H](Cc1c[nH]cn1)NC(=O)[C@H](CC(C)C)NC(=O)[C@H](Cc1ccccc1)NC(=O)[C@H](CCC(=O)O)NC(=O)[C@H](C)NC(=O)[C@H](CC(C)C)NC(=O)[C@H](CCCNC(=N)N)NC(=O)[C@H](CCC(N)=O)NC(=O)[C@@H](NC(=O)[C@H](CCC(N)=O)NC(=O)[C@H](C)NC(=O)[C@@H](NC(=O)[C@H](CO)NC(=O)[C@H](CC(C)C)NC(=O)[C@H](Cc1c[nH]cn1)NC(=O)[C@H](CO)NC(=O)[C@H](C)NC(=O)CC[C@H](NC(=O)CCCCCCCCCCCCCCCCC(=O)O)C(=O)O)[C@@H](C)O)[C@@H](C)O)C(=O)N1CCC[C@H]1C(=O)N[C@@H](CO)C(=O)N[C@@H](CO)C(=O)N[C@H](C(=O)N[C@@H](CC(=O)O)C(=O)N[C@H](C(=O)NCC(=O)N1CCC[C@H]1C(=O)N[C@@H](CC(=O)O)C(=O)N[C@H](C(=O)N[C@@H](Cc1ccc(O)cc1)C(N)=O)[C@@H](C)O)C(C)C)[C@@H](C)O) | 3.22 | 2.96
4 | {C20 diacid-γGlu}-ASHLSTAQTARLAEFLHHFGPILPPTDVGSETP-NH2 (SMILES CC[C@H](C)[C@H](NC(=O)[C@@H]1CCCN1C(=O)CNC(=O)[C@H](Cc1ccccc1)NC(=O)[C@H](Cc1c[nH]cn1)NC(=O)[C@H](Cc1c[nH]cn1)NC(=O)[C@H](CC(C)C)NC(=O)[C@H](Cc1ccccc1)NC(=O)[C@H](CCC(=O)O)NC(=O)[C@H](C)NC(=O)[C@H](CC(C)C)NC(=O)[C@H](CCCNC(=N)N)NC(=O)[C@H](C)NC(=O)[C@@H](NC(=O)[C@H](CCC(N)=O)NC(=O)[C@H](C)NC(=O)[C@@H](NC(=O)[C@H](CO)NC(=O)[C@H](CC(C)C)NC(=O)[C@H](Cc1c[nH]cn1)NC(=O)[C@H](CO)NC(=O)[C@H](C)NC(=O)CC[C@H](NC(=O)CCCCCCCCCCCCCCCCCCC(=O)O)C(=O)O)[C@@H](C)O)[C@@H](C)O)C(=O)N[C@@H](CC(C)C)C(=O)N1CCC[C@H]1C(=O)N1CCC[C@H]1C(=O)N[C@H](C(=O)N[C@@H](CC(=O)O)C(=O)N[C@H](C(=O)NCC(=O)N[C@@H](CO)C(=O)N[C@@H](CCC(=O)O)C(=O)N[C@H](C(=O)N1CCC[C@H]1C(N)=O)[C@@H](C)O)C(C)C)[C@@H](C)O) | 1.49 | 1.09
5 | {C18 diacid-γGlu}-ASHLSTLQTQRLAEFLHHSSDPFGAIPSSTDVGPDTP-NH2 (SMILES CC[C@H](C)[C@H](NC(=O)[C@H](C)NC(=O)CNC(=O)[C@H](Cc1ccccc1)NC(=O)[C@@H]1CCCN1C(=O)[C@H](CC(=O)O)NC(=O)[C@H](CO)NC(=O)[C@H](CO)NC(=O)[C@H](Cc1c[nH]cn1)NC(=O)[C@H](Cc1c[nH]cn1)NC(=O)[C@H](CC(C)C)NC(=O)[C@H](Cc1ccccc1)NC(=O)[C@H](CCC(=O)O)NC(=O)[C@H](C)NC(=O)[C@H](CC(C)C)NC(=O)[C@H](CCCNC(=N)N)NC(=O)[C@H](CCC(N)=O)NC(=O)[C@@H](NC(=O)[C@H](CCC(N)=O)NC(=O)[C@H](CC(C)C)NC(=O)[C@@H](NC(=O)[C@H](CO)NC(=O)[C@H](CC(C)C)NC(=O)[C@H](Cc1c[nH]cn1)NC(=O)[C@H](CO)NC(=O)[C@H](C)NC(=O)CC[C@H](NC(=O)CCCCCCCCCCCCCCCCC(=O)O)C(=O)O)[C@@H](C)O)[C@@H](C)O)C(=O)N1CCC[C@H]1C(=O)N[C@@H](CO)C(=O)N[C@@H](CO)C(=O)N[C@H](C(=O)N[C@@H](CC(=O)O)C(=O)N[C@H](C(=O)NCC(=O)N1CCC[C@H]1C(=O)N[C@@H](CC(=O)O)C(=O)N[C@H](C(=O)N1CCC[C@H]1C(N)=O)[C@@H](C)O)C(C)C)[C@@H](C)O) | 1.74 | 1.69
6 | {C18 diacid-γGlu}-ASHLSTLQTQRLAEFLHHSSDNFGPILPPTDVGSNTP-NH2 (SMILES CC[C@H](C)[C@H](NC(=O)[C@@H]1CCCN1C(=O)CNC(=O)[C@H](Cc1ccccc1)NC(=O)[C@H](CC(N)=O)NC(=O)[C@H](CC(=O)O)NC(=O)[C@H](CO)NC(=O)[C@H](CO)NC(=O)[C@H](Cc1c[nH]cn1)NC(=O)[C@H](Cc1c[nH]cn1)NC(=O)[C@H](CC(C)C)NC(=O)[C@H](Cc1ccccc1)NC(=O)[C@H](CCC(=O)O)NC(=O)[C@H](C)NC(=O)[C@H](CC(C)C)NC(=O)[C@H](CCCNC(=N)N)NC(=O)[C@H](CCC(N)=O)NC(=O)[C@@H](NC(=O)[C@H](CCC(N)=O)NC(=O)[C@H](CC(C)C)NC(=O)[C@@H](NC(=O)[C@H](CO)NC(=O)[C@H](CC(C)C)NC(=O)[C@H](Cc1c[nH]cn1)NC(=O)[C@H](CO)NC(=O)[C@H](C)NC(=O)CC[C@H](NC(=O)CCCCCCCCCCCCCCCCC(=O)O)C(=O)O)[C@@H](C)O)[C@@H](C)O)C(=O)N[C@@H](CC(C)C)C(=O)N1CCC[C@H]1C(=O)N1CCC[C@H]1C(=O)N[C@H](C(=O)N[C@@H](CC(=O)O)C(=O)N[C@H](C(=O)NCC(=O)N[C@@H](CO)C(=O)N[C@@H](CC(N)=O)C(=O)N[C@H](C(=O)N1CCC[C@H]1C(N)=O)[C@@H](C)O)C(C)C)[C@@H](C)O) | 2.06 | 1.91
